# Data published in patent publication US20080139456A1, “Macrocyclic Sh2 Domain Binding Inhibitors” (priority 2005, published 2008).
# Like-named read-outs stand apart in the source and are kept apart here.
# How the values were obtained:
# Grb2 SH2 domain protein = target: T1, Grb2 SH2 domain protein (Homo sapiens, UniProt P62993); experiment: Biosensor (Biacore S51 surface plasmon resonance) direct binding to chip-bound Grb2 SH2 domain protein; conditions: binding affinity to Grb2 SH2 domain protein, complex binding kinetics
# T1 construct: made in house
# Procedure: Biosensor Analysis: Binding experiments were performed on a Biacore S51 instrument (Biacore Inc., Piscataway N.J.). All Biotinylated Grb2 SH2 domain proteins (b-Grb2) were expressed and purified (Protein Expression Laboratory and The Protein Chemistry Laboratory, SAIC—Frederick). The b-Grb2 was immobilized onto carboxymethyl 5′ dextran surface (CM5 sensor chip, Biacore Inc.) by amine coupling. The lyophilized b-Grb2 was reconstituted in fifty percent DMSO in H2O to make a stock solution of 1 mg/mL and stored at −80° C. A 1: 12.5 dilution of b-Grb2 was used for immobilization, by dilution in acetate buffer pH-5.0, with 5% DMSO. 1×PBS (phosphate buffered saline, pH 7.4) was used as the running buffer.
# An immobilization wizard was used to optimize the immobilization target. For b-Grb2, 2500-5000 resonance units (RU) of protein were captured on the CM5 sensor chip. Small molecules were serially diluted in running buffer to the concentrations (1.25 nM-1500 nM) as indicated in each sensorgram and injected at 25° C. at a flow rate of 30 μL/min for 2 minutes. Varying concentrations of small molecules were injected in increasing concentrations, and every injection was performed in duplicate within each experiment. […]
# [1] = target: Biotinylated Grb2 SH2 domain protein (UniProt P62993); experiment: SPR (Biacore S51), steady state, compound injected over immobilized b-Grb2 SH2 domain
# Chain of Biotinylated Grb2 SH2 domain protein (P62993 60-152 limits assumed): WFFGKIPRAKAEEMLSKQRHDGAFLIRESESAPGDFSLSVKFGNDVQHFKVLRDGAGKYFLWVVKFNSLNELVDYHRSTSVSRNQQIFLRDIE
# T1 sequence (P62993 60-152 limits assumed): as above
"Kd (Grb2 SH2 domain protein; first of two Kd values, read-out: Kd (complex binding kinetics, first value)) [nM]","Kd (Grb2 SH2 domain protein; second of two Kd values, read-out: Kd (complex binding kinetics, second value)) [nM]",Kd [1] [nM],Molecule
9.3 ± 0.1,21300 ± 500,,NC(=O)CC1NC(=O)C2(CCCCC2)NC(=O)[C@@H](CC(=O)O)[C@@H](c2ccc(CP(=O)(O)O)cc2)/C=C/CCC2(CCCCC2)CNC1=O (some centres unmarked) [compound 24]
,,54.9,"Cyclo{[(2R,3R)-3-(4-dihydroxyphosphonomethyl)phenyl-2-(hydroxycarbonylmethyl)pent-4-enyl]-Ac6c-L-Asn-D-AllylGly}-(1-naphthyl)methyl amide (4) (peptide)"
,,22.7,"Cyclo{[(2R,3R)-3-(4-dihydroxyphosphonomethyl)phenyl-2-(hydroxycarbonylmethyl)pent-4-enyl]-Ac6c-L-Asn-L-AllylGly}-(1-naphthyl)methyl amide (3) (peptide)"
,,5610,[(2R)-3-(4-Dihydroxyphosphonomethyl)phenyl-2-(hydroxylcarbonylmethyl)propionyl]-Ac6c-L-Asn-Gly-(1-naphthyl)methyl amide (2) (peptide)
